Reference: patent US20170212130A1 (ROCKEFELLER UNIVERSITY, published 2017)
Read-outs that look alike come from different tables or passages of the source.

Experiments:
[1] = molecular target: T1, mCherry (Discosoma); test: label under gel lane; legend: in vitro Kd for mCherry by SPR
T1 construct: Immunogen is mCherry-His6; SPR says recombinant mCherry; also called recombinant mCherry-His6; Discosoma mCherry

[2] = molecular target: T2, DsRed (Discosoma sp., UniProt Q9U6Y8 1-225); test: bead binding: nanobody-Dynabeads + fluorescent protein, eluate on SDS-PAGE
T2 construct: Recombinant fluorescent protein; construct not described; also called standard DsRed; DsRed from Discosoma (Ds)

[3] = molecular target: T3, GFP-His6 (eGFP) (Aequorea victoria, UniProt P42212 2-238 = GFP); test: as above
T3 construct: SPR and bead assays speak only of recombinant GFP or eGFP; also called recombinant GFP; A. victoria (Av) GFP

[4] = molecular target: T1, mCherry; test: SPR, mCherry immobilized
[5] = molecular target: T1, mCherry; test: SPR, mCherry immobilized, Langmuir fit; unit inferred
[6] = molecular target: T3, GFP-His6 (eGFP); test: label under gel lane; legend: in vitro Kd for GFP by SPR
[7] = molecular target: T2, DsRed; test: bead binding: nanobody-Dynabeads + fluorescent protein, eluate on SDS-PAGE; remark: listed apart in the source
[8] = molecular target: T3, GFP-His6 (eGFP); test: SPR, GFP immobilized, Langmuir fit; unit inferred
[9] = molecular target: T3, GFP-His6 (eGFP); test: SPR, GFP immobilized
[10] = molecular target: T3, GFP-His6 (eGFP); test: label under gel lane; legend: in vitro Kd for GFP by SPR; remark: listed apart in the source
[11] = molecular target: T3, GFP-His6 (eGFP); test: equilibrium bead binding: LaG-Dynabeads + 0.8-400 nM GFP, Coomassie band density fit
[12] = molecular target: T3, GFP-His6 (eGFP); test: bead binding assay (footnote 1)
[13] = molecular target: T4, GFPuv (Aequorea victoria, UniProt P42212 1-229 = GFP, limits assumed); test: NMR, 15N-1H HSQC of 15N-GFPuv with 1-1.2 molar excess of LaG
T4 construct: 15N-labeled for NMR; also called GFPuv variant; 15N-labeled GFPuv

[14] = molecular target: T3, GFP-His6 (eGFP); test: SPR, GFP immobilized, Langmuir fit; no unit printed [continued]
[15] = molecular target: T5, GFP-His6 (eGFP) (Aequorea victoria, UniProt P42212 2-238 = GFP); test: SPR, GFP immobilized; reference LaG-16 or LaG-2 alone
[16] = molecular target: T5, GFP-His6 (eGFP); test: SPR, GFP immobilized
[17] = molecular target: T3, GFP-His6 (eGFP); test: method not named in the sentence (in vitro Kd by SPR per FIG. 3 legend)

T2 sequence (Q9U6Y8 whole entry): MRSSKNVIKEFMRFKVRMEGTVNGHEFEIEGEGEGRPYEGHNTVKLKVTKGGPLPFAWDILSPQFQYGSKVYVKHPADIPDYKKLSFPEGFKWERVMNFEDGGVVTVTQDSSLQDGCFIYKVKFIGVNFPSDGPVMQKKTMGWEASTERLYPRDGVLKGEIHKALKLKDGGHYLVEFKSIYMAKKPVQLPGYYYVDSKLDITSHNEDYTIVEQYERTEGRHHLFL

Row | Binder | Kd [1] [nM] | binding result [2] | binding result [3] | Kd [4] [nM] | Kd [5] [nM] | binding result [7] | Kd [9] [nM] | other results
1 | LaM-6 (VHH) VHH: QVQLVESGGGLVQAGGSLRLSCVASGSAPSFFAMAWYRQSPGNERELVAALSSLGSTNYADSVKGRFTISMDNAKNTVYLQMNNVNAEDTAVYYCAAGDFHSCYARKSCDYWGQGTQVTVS | 0.26 | no binding | no binding | 0.26 | 0.26 |  |  | 
2 | LaG-9 (VHH) VHH: DVQLVESGGGLVQAGGSLRLSCAASGRTFSTSAMGWFRQAPGKEREFVARITWSAGYTAYSDSVKGRFTISRDKAKNTVYLQMNSLKPEDTAVYYCASRSAGYSSSLTRREDYAYWGQGTQVTVS |  |  |  |  |  | no binding | 3.5 | Kd [6]: 3.5 nM; Kd [8]: 3.5 nM; Kd [10]: 3.5 nM
3 | LaG-2 (VHH, that range is inconsistent in itself; not shown: PreScission Protease cleavage site and C-terminal 6xHis tag) VHH: QVQLVESGGGLVQAGGSLRLSCAASGRTFSNYAMGWFRQAPGKEREFVAAISWTGVSTYYADSVKGRFTISRDNDKNTVYVQMNSLIPEDTAIYYCAAVRARSFSDTYSRVNEYDYWGQGTQVTV |  |  |  |  |  | no binding | 16 | Kd [11]: 19 nM; Kd [12]: 19 nM
4 | LaG-24 (VHH) VHH: DVQLVESGGGLVQPGGSLRLSCAASGEIASIIAIGWYRQAPGKQRESVALITRSGMITYGDSAQGRFTISRDDAKNTVYLHMDDLVPEDTAVYYCNAKKVSFGDYWGQGTQVTVS |  |  |  |  |  | no binding | 41 | Kd [6]: 35 nM; binding result [13]: no binding; Kd [14]: 41 nM; Kd [10]: 35 nM
5 | LaM-1 (VHH) VHH: QVQLVESGGGLVQAGDSLRLSCAASGRTFENYAMGWFRQAPGKEREFVGAVSWGGGRTYYADNVKGRFTISRDNAKKNTVYLQMNSLKPEDTAVYYCAAKSVLTIATMRVPDEYNYWGQGTQVTVS | 22 | no binding | no binding | 22 | 22 |  |  | 
6 | LaG16-LaG2 fusion with a flexible glycine-rich linker (G4S) (other) MAQVQLVESGGRLVQAGDSLRLSCAASGRTFSTSAMAWFRQAPGREREFVAAITWTVGNTILGDSVKGRFTISRDRAKNTVDLQMDNLEPEDTAVYYCSARSRGYVLSVLRSVDSYDYWGQGTQVTVSGGGGSMAQVQLVESGGGLVQAGGSLRLSCAASGRTFSNYAMGWFRQAPGKEREFVAAISWTGVSTYYADSVKGRFTISRDNDKNTVYVQMNSLIPEDTAIYYCAAVRARSFSDTYSRVNEYDYWGQGTQVTV |  |  |  |  |  |  |  | fold lower Kd than either LaG alone [15]: ~20 fold; Kd [16]: 0.036 nM
7 | LaM-8 (VHH) VHH: QVQLVESGGGLVQAGGSLRLSCAVSGRPFSEYNLGWFRQAPGKEREFVARIRSSGTTVYTDSVKGRFSASRDNAKNMGYLQLNSLEPEDTAVYYCAMSRVDTDSPAFYDYWGQGTQVTVST | 63 | no binding | no binding | 63 | 63 |  |  | 
8 | LaG-41 (VHH) VHH: DVQLVESGGGLVQAGGSLRLSCAASGPTGAMAWFRQAPGKEREFVGGISGSETDTYYVDSVKGRFTVDRDNVKNTVYLQMNSLKPEDTAVYYCAARRRITLFTSRTDYDFWGRGTQVTV |  |  |  |  |  | no binding |  | Kd [17]: 0.9 nM
